In the DeepSol protein solubility set:

Assay: soluble on expression in E. coli; label from the status in PepcDB or PDB records

Sequence	soluble on expression in E. coli
MAYLYELEGIYAQLQSMDLDEETFQDTLDSIDFQSDLENNIEYFVKMLKNVQADAEKYKAEKEAFYKKQKQAEAKAEKYKETIRLAMELSQKKKVDAGMFKVSLRRSKKVEILDETKIPLDYMQEKIEYKPMKAEISKALKSGIDISGVELIETESLQVK	not soluble
MIEWQLAELIPHAGDMILIDQVLDFDEEQINTRLTVRADGLFNQPDGSLPAWLGIELMAQSVAAYAGCQARSKGEAVKLGFLLGSRKFDCNVARFPAGSELHIHAIRSLQDDSGMGVFECTLTGPDITALARLNVYCPPNTADYLAEGAPALEHHHHHH	not soluble
MTQFETERLILRPMTAADHDALADMIFDPQVVAYLRYRRVQSPAAFEQLFTTHFLADTTTVFGIERRRDHQLIGFYEFHGSGATGELTYALSPAAWGHGYVAEAGNCLMHYGFETLNYETIEAHYASANPNSGRVMAKMGMQAAGELHTFTSDKGEVIHVMRYLLTKATWRQLSA	not soluble
MGSDKIHHHHHHMCSPTNFLYEPFSSDAVTQNYDQNLKCTKCGAYYSMACSLREQNVWTCLFCNQSNSNAELPLVPSNTYTLTSAKKEILSRRTIMIIDAICDPHELNYLVSILCNNYITRQQEPLSIITIQQSGHVILHNAVNHRRDAVFSINEFMTKYNLDKLNASYFEKKISEINQESYWFDKSTQGSLRKLLREICKIANKVNISSKRDKRCTGLALFVSSVLASQCSLSAYCHIVSFLNGPCTKGGGKVMSRERGESMRQNHHFESKSSQLQLSKSPTKFYKKMLEKFANQSLIYEFFIASLDQIGILEMSPLITSSMAVSQFDSFNDERFAMSFQKYLNLRDHNAIYNCHSKIMTAKNAIVVKDFPKYSLNPKNLSLPLEISLGHNSAEAPIQFQTTFENQTEKYIRIETLLLPKANRSFGAQNEIVFSMKKIASRIIDSFAYSSKHTKELMKQLFLLPNQIRGKDVDMVNLIQWCYHIYRSPILSVRNTSPDERYLFLHRIINASKDTCLSLCKPFIWSYSDLKHDWIVLDVPLTRAQILQDDKTTICVDGGSYLVLRRGKLLEKEGRELCCKLLNDLQRFPQPLYVETKTGGSQDRFLKSKIIPLDITDKETLGTEDMTFNEYFNLFTDLSGSK	not soluble
MNKPVAIFLMGPTASGKTDLAIALRKQLPVEVISVDSALIYKEMDIGTAKPTAAELAQAPHRLIDILDPKESYSAMHFHADALHAMADITASGRIPLLVGGTMLYYKALLEGLSPLPSANEHIRTEIEAHANQYGWASLHQQLTQIDPLAASRINANDSQRINRALEVFYLTGKNLTELTAQQGECLPYQVLQFAIAPQERAVLHQRIEQRFHKMMELGFLTEVEKLYARGDLHPDLPAIRCVGYRQMWQHLAGEISLDEAIYKGICATRQLAKRQLTWLRGWRSEITWLDSLDPTSSQEKMIQNLEQNFIKLLEHHHHHH	soluble
SSVLLRPILPEDEPKHASFISQVSHDDLYKRFFSEVGEFNHEALANFTQIDYDREMAFVATKQIDGEEIIIAVVRALSDPNHTNTEFAVLVRSDLKGLGLGKILMEKIIRYCQSIGIKVMTGMTMPANHGMIGLAQHLGFSVDIQMSDGVVDMFLEL	not soluble
MSLSLRRIDHVSLRVRDVEEASRRWSAQFGLAVRERDGRRARLACDDEPYCLELLAAEAPGVEHVAYELRRSCTLEEAGRHFEGLGVPYEEHAGGLRVADPDGNRVLVLPYREPRERWVSHARAATDQIVGHPRRLGHVNFLTGRLSEGVEFYTRALGMRITDWLGEGGVWFHINADHHVMALVDKGYPHFHHLAFDVVDIGQMRVALDHLGRHGRWLGWGPVRHGIGGNIASYVRIVEEECFVELYCDMEQLEADHEVRRWPDNRFSSNTWGPLPPRSYFRFDEAAVASERESLEMLGHPLKEEVSSEGHHHHHH	soluble
MGSDKIHHHHHHMRLEELVNNNYNKLNENDLHIWKYICCNKRECCTISIDELAKKCNISRTTISRFTQKLSLEGFGEFKVRLKLELGVSNNFKSSSVEDVYQDYYKTIKDMKEKDFLEICRMIYGAKHLFVYGTGAVQIAAANELKRHFISVNKFFVTVHGEAEMNMVLETATDEDLIVIISLSGEKKSAVEYLKKVKVKNIPSISITKLSDNSIARLCDENLYIITRNIKIEGVVTCENVGQYFILIEILFLKYITYLGQLKKEDTIS	not soluble
MAHHHHHHMKCELASLIKENAQLGREMRGTPQLRVPQETDVAWRLRRDVLLHSEYPHVAACPEKDVERKDGRAVVVFQESKLQGEPPERTAAQKRSRSDHTAVVSVDPSVLKARASSLGERIVGAAGPSFEPYTAPPSWKMAKVLVGHRGWVWGAAVDPSNSWFATGGGDGVVKVWDLTTGALKLNLTGHKEGVRALSLSTLSPYMFTGSDDHSVKCWDLERNEIIRDFHGHKGSVHCVSTHPSLDIVLSGGRDKTVRVWDVRTRSCVHLLLGHSDSVMSLAVQQEDPQAISGGSDGMVYLWDIASGRAFTRLTRHKKPVRGLALSRQRVLVSCGADNIRVWSLPTGEFLFNASTLDNGKETKKEKEQEPQRWSCCSVSPRNVLAVGSQEGRLLFFDWSHPQQGPYQATKTRSVPGTLPGEGGINGLAFDASGSRLITAESDKSAKVWRTKE	not soluble
MTALFCLELRTNIFLIMNDCIIINYWKGFIFSFHSYFFPFRFESSLRAHYPGKRNYSDFSVIPLPYYIDVRSFHICESQHIIALPLQIPLPYRMLIRMYPV	soluble
SLKCLVLTGISRNVIEELMRRNIRTIELRSAHNVATALKAEPGDCVFLTPARINDLGRGVSGLVAEVRGKEVMSQSLFYQSPSYIEESELTVVRLMLKPKSLGRLVQVKRGAFLETIEGDVVEMSYFDAR	soluble
MEKKKLTTAAGAPVVDNNNVITAGPRGPMLLQDVWFLEKLAHFDREVIPERRMFAKGSGAFGTFTVTHDITKYTRAKIFSEVGKKTEMFARFSTVAGERGAADAERDIRGFALKFYTEEGNWDMVGNNTPVFYLRDPLKFPDLNHIVKRDPRTNMRNMAYKWDFFSHLPESLHQLTIDMSDRGLPLSYRFVHGFGSHTYSFINKDNERFWVKFHFRCQQGIKNLMDDEAEALVGKDRESSQRDLFEAIERGDYPRWKLQIQIMPEKEASTVPYNPFDLTKVWPHADYPLMDVGYFELNRNPDNYFSDVEQAAFSPANIVPGISFSPDKMLQGRLFSYGDAHRYRLGVNHHQIPVNAPKCPFHNYHRDGAMRVDGNSGNGITYEPNSGGVFQEQPDFKEPPLSIEGAADHWNHREDEDYFSQPRALYELLSDDEHQRMFARIAGELSQASKETQQRQIDLFTKVHPEYGAGVEKAIKVLEGKDAK	soluble
PKRSDARLPQVAAFSYVEDLLQAGVHVHLYTNGFLHSKLIMVDSQVASIGSTNMDFRSLENNFEFNGIIYDEPTVHRLEAIFFEDLLQSEPLDLKRWRKRSRIKKFSESFVRLFSPLL	not soluble
MGSDKIHHHHHHMGPYRFVNREFLIITYRTDMDRLREIVPEPLEVKEPLVHYEFIRMPDSTGFGDYTESGQVIPVEYKGQPGGYTLAMYLNDHPPIAGGRELWGFPKKLAQPTLQTHIDTLLGTLDYGPVRVATGTMGYKHQELDLEEQAKRLAGANFLLKIIPHVDGSARVCELVRYYLQDIEMKGAWTGPASLQLAPHALAPVADLPVLEIVEARHLLADLTLGLGEVVYDYLAQ	not soluble
MGSDKIHHHHHHMPPLPVLNRPQIHTSVTEISHAIDRTIKEELFPVAYTTEEEQYFKTNPKPAYIDELIKDAKEFIDLQYSLKRNKIVLITSGGTTVPLENNTVRFIDNFSAGTRGASSAEQFLANGYSVIFLHREFSLTPYNRSFSHSINTLFLDYIDSEGKIKPEFAENVLKNKKLYDKYMEKEEKLLLLPFTTVNQYLWSLKSIAKLLNNSGCLFYLAAAVSDFFVPYSRLPQHKIQSGDNGKMGANNDTEGTTRTTPDGKLIVNLDPVPKFLRRLVESWATQAMIVSFKLETDESMLLYKCTQALDRYNHQLVIGNLLQTRNKQVIFVSPENRKGDWVRLDEKHHIIEEMIIPEVIARHDKWVAHSKTKLATK	not soluble
MKTSSYLLKAGVDYPTNWDEFVDWFHDEQSCTSYLYALRWPNGFICPSCSSHQSPYQLSNGKLKCHACRFQCSVTSSTLFDKTRTPMKSWFAAVWFITNQKNGVSALGVQRLLGLGSYQTAWSLMHKLRYAMVDPERDKLSGIVEVDETLIGGVIPKSSIKNQQGKRKAIVLVAVELLSPSGFGRIRLRQVESATKEHIHQFIQDVIEPGSTICSDGSQAYKQIDKKGYKHNRMVHLGSSVPAHETMAGVHRVSSLCKRWLLGTYQGAVKAKQLDYYLDEFTFRFNRRKSDSRGLLFYRLLEQAVRSKPITYQSIKNRLEHHHHHH	not soluble
MDSNEIIKRVRERVYREVKKKYTRDDLDTRIQDVLYYRSETYMKLVSFANGKRIKKLADPRKFEKFMDTKGVKIVAEVLDGLNNQPKMQAMEYEQKVLTKVRQWYQKKNHPELVDLEEEAFEQLVEKNIIYKKMKKRLYEEQDNQGFVYSDNFDMQLIRDSCDIEEALYLDITLGDY	not soluble
MSKVKGDLEKSDKRPPSSMSTGSADSGVFSSGVHASSPSHSQGSSSQSGPPSPTTQLNSLLFETANLIAVNEQLRKEIAENKQIQTNQMRALRYSSNPVDQPFVANSISPHHGFPQRPPRGERRMQKPESYKTVICQAWLESKTCTFAENCRFAHGEEELRPAKLESRQNNKYKTKLCDKYTTTGLCPYGKRCLFIHPDNQPNAYIRADKLYEVSQRHALADLRDHVESQIMTGNTRNSYNQQPPPMGGLEMQSSPMKSSSDSSHMRSPMAQMNCETTRPHPSWPLESSSFFLPPEMSSINNNNLMSPFETPFPNGSTGIQPHFVTAKRRAAFPPVPSNFQQDDDNMSSIPGFDHLAEDMAKHLELW	not soluble
MGSDKIHHHHHHMNILMLMLSDNPDTGGMEKHARELSSELARLGHTVTLAAASQHLSDLEPAVKTRALDTGGSRNSPFLLLTVLRLIRANGFDVIHAQGTKAAFVLQRLTPFTRSLMRVATIHGFKSRYPKAAAFHQLIAVSQALATDIAQPGVTVIYNGVSVIPQAPALLPKETERPVWLAVGRLVSVKGFDFLIRTFQYCPGTLLIAGDGPERQRLADLISSTHQSETVKLLGFRSDVPALMAAADGVVISSEREGFSYVCAEALLLGKPVISTDVPIANEILPEKHIFRGEDPKRFAAYLSQDTSTLVAEQAEAQAFAADQLSLSSMASQTLNVYQRAIANLVSIH	not soluble
MGSDKIHHHHHHMVRTTKFGDLPVLHVFAASQAQTKLPTIIDYHGWTNQTATELGTAYQLVRAGFRVILPTAYLHGSRNDGTDLDRHPEHFWSIVGHSVAEFPQLVAALVAAGISDANKIGVMGTSMGGITAAGIMATQPTVVAGVSLIGSPEPVAFATDQVAQLPAALQAKLPAELIEQTYQQLAKFDLSEHPEALAGRPMFFFNGTADQMVPYQYIRDFKHRFKDEPALKATVFKRAEGGVHHVPHKIQEAAVAFLETNILK	not soluble
